Consider one sequence from article PMC4605297.

For orientation: Ki means the dissociation constant of the complex between target and ligand, obtained from inhibition or displacement. Read a high Ki as weaker binding.

The target in the data set is T1, SsOGT C29A C29A (Sulfolobus solfataricus) (UniProt Q97VW7).
T1 sequence: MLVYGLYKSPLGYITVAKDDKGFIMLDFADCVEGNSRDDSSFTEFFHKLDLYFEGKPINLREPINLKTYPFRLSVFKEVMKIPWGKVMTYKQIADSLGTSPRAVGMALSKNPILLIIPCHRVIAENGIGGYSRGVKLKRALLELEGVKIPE
Kind of data set: competition. The following applies: O6-methylguanine at position 26 of strand 1; EMSA: 0-25 uM protein, 0.2 uM probe, 37 C 10 min, 10 ul, buffer as ref. 17, 8% native PAGE in 1X TBE pH 8.3; competition: BG-VG assay, 50 C under ref. …. (In general: Mobility shift assays separate free from complexed probe on a gel.)

Sequence “GGCAGTAGGCCTAGCATGACAATCTGCATTGGTGATCACGG / CGCTCATCCACAATGCAGATTGTCATGCTAGGCCTACTGCC [ds-Fwdm26]” came in with a Ki of 1030 nM.
